Reference: patent publication US20160168251A1

Molecular target: human NPRA on HEK293 cells, without added ligand (human) (UniProt P16066)
Assay: cell-based or functional assay

Sequence of human NPRA on HEK293 cells, without added ligand (human) (P16066 33-1061 limits assumed): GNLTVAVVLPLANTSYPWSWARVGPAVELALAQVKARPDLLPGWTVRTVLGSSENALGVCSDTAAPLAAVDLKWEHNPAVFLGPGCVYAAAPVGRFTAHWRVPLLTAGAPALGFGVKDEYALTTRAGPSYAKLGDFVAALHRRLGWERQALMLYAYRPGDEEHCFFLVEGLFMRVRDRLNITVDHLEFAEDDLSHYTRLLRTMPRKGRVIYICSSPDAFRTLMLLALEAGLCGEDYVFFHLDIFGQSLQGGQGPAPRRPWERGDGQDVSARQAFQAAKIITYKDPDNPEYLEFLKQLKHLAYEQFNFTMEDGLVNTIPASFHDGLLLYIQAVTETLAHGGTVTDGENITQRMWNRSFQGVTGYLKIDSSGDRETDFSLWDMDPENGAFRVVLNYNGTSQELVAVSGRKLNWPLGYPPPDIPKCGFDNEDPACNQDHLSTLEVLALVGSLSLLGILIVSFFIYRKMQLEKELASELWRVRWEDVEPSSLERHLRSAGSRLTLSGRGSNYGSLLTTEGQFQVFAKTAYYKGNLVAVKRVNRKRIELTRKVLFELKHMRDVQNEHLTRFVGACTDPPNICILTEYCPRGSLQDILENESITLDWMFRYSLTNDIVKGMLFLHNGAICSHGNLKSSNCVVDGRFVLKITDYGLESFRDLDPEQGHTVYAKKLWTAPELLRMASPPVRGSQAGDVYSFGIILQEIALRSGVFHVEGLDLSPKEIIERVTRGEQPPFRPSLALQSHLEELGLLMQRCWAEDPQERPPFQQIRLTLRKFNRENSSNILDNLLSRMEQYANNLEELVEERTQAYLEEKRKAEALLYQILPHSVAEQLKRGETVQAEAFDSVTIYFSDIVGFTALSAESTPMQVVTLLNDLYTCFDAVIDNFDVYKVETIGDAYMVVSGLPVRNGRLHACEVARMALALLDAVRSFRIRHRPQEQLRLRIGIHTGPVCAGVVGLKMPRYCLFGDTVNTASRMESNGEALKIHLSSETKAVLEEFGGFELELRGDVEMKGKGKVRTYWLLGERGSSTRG

EC50 of BNP, cGMP production in HEK NPRA cells, in presence of negative control Fab: 90 nM
Substance: B-type natriuretic peptide (BNP), free (from UniProt P16860 27-134) (ligand)
